B1: TPR t1 (parent)
chain: GACCAAUCUGCCCUCAGAGCUCGAGAACAUCUUCGGAUGCAGAGGAGGCAGGCUUCGGUGGCGCGAUAGCGCCAACGUCCUCAACCUCCAAUGCAUCCCACCACAUGAUGAUGCCUGAAGAGCCUUGGUUUUUUG

Variants of: B1
Experiment: polymerase ribozyme fitness, log enrichment relative to wild type (log ratio); higher = more active; in vitro selection for triplet polymerase activity
Method in brief: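 Both subunits of a heterodimeric triplet polymerase ribozyme were given their own mutant library, built by PCR and transcribed. Each library was annealed with a biotinylated primer, the partner subunit and triplets, incubated frozen at −7 °C, and its extended constructs gel-excised, captured on streptavidin beads and amplified by RT-PCR, all in one round done in triplicate. Fitness is the logarithm of genotype enrichment relative to wild-type enrichment, with replicates averaged by inverse-variance weighting. That logarithm is base 2, and Illumina-sequenced genotypes needed ≥10 input reads and ≥1 read per output.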

Variant	polymerase ribozyme fitness (log ratio)
GACCAAUCUGCCCUCAGAGCUCGAGAACAUCUUCGGAUGCAGAAGAGGCAGGCUUCGGUGGCGCGAUAGCGCCAACGUCCUCAACCUCCAAUGCAUCCCACCACAUGAUGAUGCCUGAUGAGCCUUGGUUUUUUG	-0.987
GACCAAUCUGCCCUCAGAGCUCGAGAACAUCUUCGGAUGCAGAAGAGGCAGGCUUCGGUGGCGCGAUAGCGCCAACGUCCUCAACCUCCAAUGCAUCCCACCACAUGAUGAUGCCUGAAGCGCCGUGGUUUUUUG	0.065
GACCAAUCUGCCCUCAGAGCUCGAGAACAUCUUCGGAUGCAGAAGAGGCAGGCUUCGGUGGCGCGAUAGCGCCAACGUCCUCAACCUCCAAUGCAUCCCACCACAUGAUGAUGCCUGAAGGGCCUUGGUUUUUUG	1.53
GACCAAUCUGCCCUCAGAGCUCGAGAACAUCUUCGGAUGCAGAAGAGGAAGGCUUCGGUGGCGCGAUAGCGCUAACGUCCUCAACCUCCAAUGCAUCCCACCACAUGAUGAUGCCCGAAGAGCCUUGGUUUUUUG	-2.91
GACCAAUCUGCCCUCAGAGCUCGAGAACAUCUUCGGAUGCAGAAGAGGAAGGCUUCGGUGGCGCGAUAGCGCCAAAGUCCUCAACCUCCAAUGCAUCCCACCACAAGAUGAUGCCUGAAGAGCCUUGGUUUUUUG	-3.36
GACCAAUCUGCCCUCAGAGCUCGAGAACAUCUUCGGAUGCAGAAGAGGUAGGCUUCGGUGGCGCGAUAGCGCCAAGGUCCUCAACCUGCAAUGCAUCCCACCACAUGAUGAUGCCUGAAGAGCCUUGGUUUUUUG	-3.44
GACCAAUCUGCCCUCAGAGCUCGAGAACAUCUUCGGAUGCAGAAGAGGUAGGCUUCGGUGGCGCGAUAGCGCCAACGUCCUCAACCUCCAAUGCAUCCCACCACACGAUGAUGCCUGAAGAGCCUUGGUUUUUUG	-2.86
GACCAAUCUGCCCUCAGAGCUCGAGAACAUCUUCGGAUGCAGAAGAGGCAGGGUUCGGUGGCUCGAUAGCGCCAACGUCCUCAACCUCCAAUGCAUCCCACAACGUGAUGAUGCCUCAAGAGCCUUGGUUUUUUG	-7.23
GACCAAUCUGCCCUCAGAGCUCGAGAACAUCUUCGGAUGCAGAAGAGGCAGGCUUUGGUGGCGCGAUAGCGUCAACGUCCUCAACCUCCAAUGCAUCCCACCACAUGAUGAUGCCUGAACAGCCUUGGCUUUUUG	-2.55
GACCAAUCUGCCCUCAGAGCUCGAGAACAUCUUCGGAUGCAGAAGAGGCAGGCUUCGGUGGCGCGAUAGCGACAACGUCCUCAACCUCCAAUGCAUCCCACCACAUGAUGAUGCCUAAAGAGCCUUGGUUUUUUG	-2.9
GACCAAUCUGCCCUCAGAGCUCGAGAACAUCUUCGGAUGCAGAAGAGGCAGGCUUCGGUGGCGCGAUAGCGGCAACGUACUCUACCUCCAAUGCAUCCCACCACAUGAUGAGGCCUGAAGAACCUUGGUUUCUUG	-6.81
GACCAAUCUGCCCUCAGAGCUCGAGAACAUCUUCGGAUGCAGAAGAGGCAGGCUUCGGUGGCGCGAUAGCGGCAACGUCCUCAACCUCCAAUGCAUCCCACCACAUGAUGAGGCCUAAAGAGCCUUGGUUUUUUG	-5.1
GACCAAUCUGCCCUCAGAGCUCGAGAACAUCUUCGGAUGCAGAAGAGGCAGGCUUCGGUGGCGCGAUAGCGUCAACGUCCUCAACCUCCAAUUCAUUCCACCACAUGAUGAUGCCUGAAGAGCCUUGGUUAUUUG	-2.85
GACCAAUCUGCCCUCAGAGCUCGAGAACAUCUUCGGAUGCAGAAGAGGCAGGCUUCGGUGGCGCGAUAGCGCCAACGUACUCAACCUCCAAUGCAUCCCACCACAUGAUGAUGCCUGAAGAGCCUUGGUUUUUUG	-3.11
GACCAAUCUGCCCUCAGAGCUCGAGAACAUCUUCGGAUGCAGAAGAGGCAGGCUUCGGUGGCGCGAUAGCGCCAACGUCCUAAACCUCCAAUGCAUCCCACCACAUGAUGAUGCCUGAAGAGCCUUGGUUUUUUG	-1.69
GACCAAUCUGCCCUCAGAGCUCGAGAACAUCUUCGGAUGCAGAAGAGGCAGGCUUCGGUGGCGCGAUAGCGCCAACGUCCUCAACAUCUAAUGCAUCCCACCACAUGAUGAUGCGUGAAGAGACUUGGUUUUUUG	-2.79
GACCAAUCUGCCCUCAGAGCUCGAGAACAUCUUCGGAUGCAGAAGAGGCAGGCUUCGGUGGCGCGAUAGCGCCAACGUCCUCAACCUCUAAUGCAUCCCACCACAUGAUGAUGCCUGAAGAGUUUUGGUUUUUUG	1.33
GACCAAUCUGCCCUCAGAGCUCGAGAACAUCUUCGGAUGCAGAAGAGGCAGGCUUCGGUGGCGCGAUAGCGCCAACGUCCUCAACCUCCAAUGCAUCCCAACACAUGAUGAUGCCUGAAGAGCCUUGGUUUUUUG	-2.48
GACCAAUCUGCCCUCAGAGCUCGAGAACAUCUUCGGAUGCAGAAGAGGCAGGCUUCGGUGGCGCGAUAGCGCCAACGUCCUCAACCUCCAAUGCAUCCCAACACAUGAAGAUGCCUGAAGAGCCUUGGUUUUUUG	-5.41
GACCAAUCUGCCCUCAGAGCUCGAGAACAUCUUCGGAUGCAGAAGAGGCAGGCUUCGGUGGCGCGAUAGCGCCAACGUCCUCAACCUCCAAUGCAUCCCAUCACAUGAUGAUGCCUGAAGAGCCUUGGUUUUUUG	-1.1
GACCAAUCUGCCCUCAGAGCUCGAGAACAUCUUCGGAUGCAGAACAGGCAGGCUUCGGUGGCGCGAUAGCGCCAACGUCCUCAACCUCCAAUGCAUCCCACCACAUGAUGAUGCCUGAAGAGCCUUGGUUUUUUG	-3.88

Variant	polymerase ribozyme fitness (log ratio)
GACCAAUCUGCCCUCAGAGCUCGAGAACAUCUUCGGAUGCAGAAGAUGCAGGCUUCGGUGGCGCGAUAGCGCCAACGUCCUCAACCUCCAAUGAAUCCCACCACAUGAUGAUGCCUGAAGAGCCUUGGUUUUUUG	-2.96
GACCAAUCUGCCCUCAGAGCUCGAGAACAUCUUCGGAUGCAGAAGAUGCAGGCUUCGGUGGCGCGAUAGCGCCAACGCCCUCAACCUCCAAUGCAUCCCACCACAUGAUAAUGCCUGAAGAGCCUUGGUUUUUUG	-3.74
GACCAAUCUGCCCUCAGAGCUCGAGAACAUCUUCGGAUGCAGAAGAGGCAAGCUUCGGUGGCGCGAUAGCGCCAACGUCCUCAACCUCCAAUGCAUCCCACCAUAUGAUGAUGCGUGAAGCGCAUUGGUUUUUUG	-5.73
GACCAAUCUGCCCUCAGAGCUCGAGAACAUCUUCGGAUGCAGAAGAGGCAGCCUUCGAUGGCGCGAUAGCGCCAACGUCCUCAACCUCCAAUGCAUCCCACCACAUGAUGAUGCCUGAAAAGCCUUGGUUUUUUG	-1.3
GACCAAUCUGCCCUCAGAGCUCGAGAACAUCUUCGGAUGCAGAAGAGGCAGUCUUCGGUGGCGCGAUAGCGCCAACGUCCUCAACCUCCAAUGCAUCCCACCACAUGAUGAUGCCUGAAGAGCCUUGGUUUUUUG	-2.04
GACCAAUCUGCCCUCAGAGCUCGAGAACAUCUUCGGAUGCAGAAGAGGCAGUCUUCGGUGGCUCGAUAGCGCCAACGUCCUCAACCACCAAUGCAUCCCACCACAUGAUGAUGCCUGAAGAGCCUUGGUUUUUUG	-5.6
GACCAAUCUGCCCUCAGAGCUCGAGAACAUCUUCGGAUGCAGAAGAGGCAGGCUUCCGUGACGCGAUAGCGCCAACGUCCUCAACCUCCAAUGCAUCCCACCACAUGAUGACGCCUGAAAAGCCUUAGUUUUUUG	-1.81
GACCAAUCUGCCCUCAGAGCUCGAGAACAUCUUCGGAUGCAGAAGAGGCAGGCUUCGGUAGCGCGAUAGCGCCAACGUCCUCAACCUCCAAUGCAUCCCACCACAUGAUGAUGCCUGAAGAGCCUUGGUUUUUUG	-0.624
GACCAAUCUGCCCUCAGAGCUCGAGAACAUCUUCGGAUGCAGAAGAGGCAGGCUUCGGUCGCGCGAUAGCGCCAACGUCCUCAACCUCCAAUGCAUCCCACCACAUGAUGAUGCCUGAAGAGCAUUGGUUUUUUG	0.703
GACCAAUCUGCCCUCAGAGCUCGAGAACAUCUUCGGAUGCAGAAGAGGCAGGCUUCGGUUGCGCGAUAGCGCCAACGUCCUCAACCUCCAAUGCAUCCCACCACAUGAUGAUGCCUCAAGAGCCUUGGUUUUUUG	-5.36
GACCAAUCUGCCCUCAGAGCUCGAGAACAUCUUCGGAUGCAGAAGAGGCAGGCUUCGGUGCCGCGAUAGCGCCAACGUCCUCAACCUCCAAUGCAUCCCACCACAUGAUGAUGCCUGAAGAGCCUUGGUUUUUUG	-3.11
GACCAAUCUGCCCUCAGAGCUCGAGAACAUCUUCGGAUGCAGAAGAGGCAGGCUUCGGUGUCGCGAUAGCGCCAACGUCCUCAACCUGCAAUGCAUCCCACCACAUGAUGAUGCCUGAAGAGCCUUGGUUUUUUG	-2.64
GACCAAUCUGCCCUCAGAGCUCGAGAACAUCUUCGGAUGCAGAAGAGGCAGGCUUCGGUGGCACGAUAGCGCCAACGUCAUCAACCUCCAAUGCAUCCCACCACAUGAUUAUGCGUGAAGAGCCUUGGUUUUUUG	-7.37
GACCAAUCUGCCCUCAGAGCUCGAGAACAUCUUCGGAUGCAGAAGAGGCAGGCUUCGGUGGCGCGAUAUCGCCAACGUCCACAACCUCCAAUGCAUCCCACCACAUGAUGAUGCCUGAAGAGCCUUGGUUUUUUG	-0.353
GACCAAUCUGCCCUCAGAGCUCGAGAACAUCUUCGGAUGCAGAAGAGGCAGGCUUCGGUGGCGCGAUAGCACCAACGUCCUCAACCUCCAAUGCAUCCCACCACAUGAUGAUGCCUGAAGAGCCUUGGUUUUUUG	-2.54
GACCAAUCUGCCCUCAGAGCUCGAGAACAUCUUCGGAUGCAGAAGAGGCAGGCUUCGGUGGCGCGAUAGCCCCAACGUCCUCAACCUCCAAUGCAUCCCACCACAUGAUGAUGCCUGAAGAGCCAUGGCUUUUUG	-4.8
GACCAAUCUGCCCUCAGAGCUCGAGAACAUCUUCGGAUGCAGAAGAGGCAGGCUUCGGUGGCGCGAUAGCGCCAACAUCCUCAACCUCCAAUGCAUCCCACCACACGAUGAUGCCUAAAGAGCCUUGGUUUUUUG	-3.03
GACCAAUCUGCCCUCAGAGCUCGAGAACAUCUUCGGAUGCAGAAGAGGCAGGCUUCGGUGGCGCGAUAGCGCCAACGUCCUCAACCUCCAAUUCAUCCCACCACAUGAUGAUGCCUGAAGAGCGUUGGUUUUUUG	0.0379
GACCAAUCUGCCCUCAGAGCUCGAGAACAUCUUCGGAUGCAGAAGAGGCAGGCUUCGGUGGCGCGAUAGCGCCAACGUCCUCAACCUCCAAUGCAUCCCACCACAUGAUUAUGCCUGAAGAGCCUUGGUUUUUUG	-2.5
GACCAAUCUGCCCUCAGAGCUCGAGAACAUCUUCGGAUGCAGAAGAGGCAGGCUUCGGUGGCGCGAUAGCGCCAACGUCCUCAACCUCCAAUGCAUCCCACCACAUGAUGAUACCUGAAGAGCCUUGGUUUUUUG	-2.35
GACCAAUCUGCCCUCAGAGCUCGAGAACAUCUUCGGAUGCAGAAGAGGCAGGCUUCGGUGGCGCGAUAGCGCCAACGUCCUCAACCUCCAAUGCAUCCCACCACAUGAUGAUGCCUGAAGAACCUUGCUUUUUUG	-3.84

Source: the RNAGym collection of RNA variant scans (doi:10.1073/pnas.2313332121)
